Reference: publication PMC9887757 (2023)

Target: 41F17
Experiment: SPR; avidity

B1: BKPyV VLP genotype Ia (VP1 virus-like particles) (complex)
chain: MAPTKRKGECPGAAPKKPKEPVQVPKLLIKGGVEVLEVKTGVDAITEVECFLNPEMGDPDENLRGFSLKLSAENDFSSDSPERKMLPCYSTARIPLPNLNEDLTCGNLLMWEAVTVQTEVIGITSMLNLHAGSQKVHEHGGGKPIQGSNFHFFAVGGEPLEMQGVLMNYRSKYPDGTITPKNPTAQSQVMNTDHKAYLDKNNAYPVECWVPDPSRNENARYFGTFTGGENVPPVLHVTNTATTVLLDEQGVGPLCKADSLYVSAADICGLFTNSSGTQQWRGLARYFKIRLRKRSVKNPYPISFLLSDLINRRTQRVDGQPMYGMESQVEEVRVFDGTERLPGDPDMIRYIDKQGQLQTKML
- Kd: 340 pM
